Reference: patent US20140004120A1 (Daiichi Sankyo, published 2014)

Molecular target: T1, rsDR5 (recombinant human DR5 extracellular domain protein) (human, UniProt O14763 56-183)
T1 construct: the two may be offset
Assay: gel filtration (Superdex 200) of the mixture of cB273 Fab fragment and rsDR5; complex then crystallized

- binding result: binds
B1: cB273 Fab fragment (Fab, V domains shown)
VH: EVQLQQSGPELVKPGASVKISCKASGYSFIGYFMNWMKQSHGKSLEWIGRFNPYNGDTFYNQKFKGKATLTVDKSSTTAHMELLSLTSEDSAVYFCGRSAYYFDSGGYFDYWGQGTTLTVSS
VL: DVVMTQTPLSLPVSLGDQASISCRSSQSLVHSNGNTYLHWYLQKPGQSPKLLIYKVSNRFSGVPDRFSGSGSGTDFTLKISRVEAEDLGIYFCSQSTHVPWTFGGGTKLEIKR
